Measurements taken from paper PMC6336354, “A transient helix in the disordered region of dynein light intermediate chain links the motor to structurally diverse adaptors for cargo transport” (PLoS Biology, 2019).

B1: GST::LIC2(375–492)::6xHis (domain or fragment, human)
chain: WATPTRASESPARGPSGSPRTQGRGGPASVPSSSPGTSVKKPDPNIKNNAASEGVLASFFNSLLSKKTGSPGSPGAGGVQSTAKKSGQKTVLSNVQEELDRMTRKPDSMVTNSSTENEA
notes: single N-terminal tryptophan added in the construct; also called LIC2-C; source: E. coli BL21, purified (glutathione agarose, Ni-NTA; dialysis or SEC); not shown: GST, N-terminal, kept; 6xHis (after linker GSGSG), C-terminal, kept
B2: GST::LIC2(375–450)::6xHis (domain or fragment, human)
chain: WATPTRASESPARGPSGSPRTQGRGGPASVPSSSPGTSVKKPDPNIKNNAASEGVLASFFNSLLSKKTGSPGSPGAG
notes: single N-terminal tryptophan added in the construct; source: E. coli BL21, purified (glutathione agarose, Ni-NTA; dialysis or SEC); not shown: GST, N-terminal, kept; 6xHis (after linker GSGSG), C-terminal, kept
B3: GST::LIC1(402–471)::6xHis (domain or fragment, human)
chain: WPGGSPRTPNRSVSSNVASVSPIPAGSKKIDPNMKAGATSEGVLANFFNSLLSKKTGSPGGPGVSGGSPAG
notes: single N-terminal tryptophan added in the construct; human dynein light intermediate chain 1 (DYNC1LI1), residues 402-471; source: E. coli BL21, purified (glutathione agarose, Ni-NTA; dialysis or SEC); not shown: GST, N-terminal, kept; 6xHis (after linker GSGSG), C-terminal, kept
B4: GST::LIC1(414–471)::6xHis (domain or fragment, human)
chain: WSSNVASVSPIPAGSKKIDPNMKAGATSEGVLANFFNSLLSKKTGSPGGPGVSGGSPAG
notes: single N-terminal tryptophan added in the construct; human dynein light intermediate chain 1 (DYNC1LI1), residues 414-471; source: E. coli BL21, purified (glutathione agarose, Ni-NTA; dialysis or SEC); not shown: GST, N-terminal, kept; 6xHis (after linker GSGSG), C-terminal, kept

What follows are binders tested against T1, BICD2(2–422)::Strep-tag II (human, UniProt Q8TD16 2-422) (assay: pull-down; GST::LIC::6xHis (50 pmol) with 50 or 250 pmol adaptor and glutathione agarose, 1 h at 4°C, 150 μL of 50 mM HEPES, 100 mM NaCl, 5 mM DTT, pH 7.5, 0.1% Tween 20; Coomassie staining and immunoblot against Strep-tag II). Settings: both partners purified.
T1 construct: human bicaudal D homolog 2 (BICD2), N-terminal region, residues 2-422; also called bicaudal D homolog 2; source: E. coli BL21, purified (Ni-NTA, TEV cleavage, Strep-Tactin; dialysis or SEC); not shown: 6xHis::MBP, N-terminal, cleaved; Strep-tag II (after linker GSGSGR), C-terminal, kept
T1 sequence (Q8TD16 2-422): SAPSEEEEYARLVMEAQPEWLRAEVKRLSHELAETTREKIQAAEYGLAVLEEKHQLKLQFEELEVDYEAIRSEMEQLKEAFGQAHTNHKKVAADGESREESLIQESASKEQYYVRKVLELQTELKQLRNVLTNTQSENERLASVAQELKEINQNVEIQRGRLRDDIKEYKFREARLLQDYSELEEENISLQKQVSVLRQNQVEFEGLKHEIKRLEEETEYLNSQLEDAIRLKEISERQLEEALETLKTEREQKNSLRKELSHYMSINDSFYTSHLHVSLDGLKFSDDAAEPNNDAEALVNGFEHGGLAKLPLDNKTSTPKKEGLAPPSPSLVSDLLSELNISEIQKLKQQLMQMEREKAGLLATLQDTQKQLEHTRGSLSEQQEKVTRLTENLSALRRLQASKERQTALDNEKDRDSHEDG
B1: binds.
B2: binds.
B3: binds.
B4: binds.

Each binder was assayed against T2, SPDL1(2–359)::Strep-tag II (human, UniProt Q96EA4 2-359) in the same assay as above. Settings: both partners purified.
T2 construct: human Spindly (SPDL1), N-terminal region, residues 2-359; also called Spindly; source: E. coli BL21, purified (Ni-NTA, TEV cleavage, Strep-Tactin; dialysis or SEC); not shown: 6xHis::MBP, N-terminal, cleaved; Strep-tag II (after linker GSGSGR), C-terminal, kept
T2 sequence (looked up): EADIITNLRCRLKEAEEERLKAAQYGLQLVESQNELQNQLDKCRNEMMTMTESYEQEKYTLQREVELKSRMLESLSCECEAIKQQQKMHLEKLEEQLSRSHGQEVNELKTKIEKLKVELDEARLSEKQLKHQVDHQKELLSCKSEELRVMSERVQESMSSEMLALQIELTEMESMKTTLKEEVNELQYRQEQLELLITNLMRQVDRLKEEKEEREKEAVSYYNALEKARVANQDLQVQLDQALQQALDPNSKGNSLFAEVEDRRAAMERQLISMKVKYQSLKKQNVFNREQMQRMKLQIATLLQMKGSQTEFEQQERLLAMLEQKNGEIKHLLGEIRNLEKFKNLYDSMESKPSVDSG
B1: binds.
B2: binds.
B3: binds.
B4: binds.

What follows are binders tested against T3, RAB11FIP3(2–756)::Strep-tag II (human, UniProt O75154 2-756) in the same assay as above. Settings: both partners purified.
T3 construct: source: E. coli BL21, purified (Ni-NTA, TEV cleavage, Strep-Tactin; dialysis or SEC); not shown: 6xHis::MBP, N-terminal, cleaved; Strep-tag II (after linker GSGSGR), C-terminal, kept
T3 sequence (looked up): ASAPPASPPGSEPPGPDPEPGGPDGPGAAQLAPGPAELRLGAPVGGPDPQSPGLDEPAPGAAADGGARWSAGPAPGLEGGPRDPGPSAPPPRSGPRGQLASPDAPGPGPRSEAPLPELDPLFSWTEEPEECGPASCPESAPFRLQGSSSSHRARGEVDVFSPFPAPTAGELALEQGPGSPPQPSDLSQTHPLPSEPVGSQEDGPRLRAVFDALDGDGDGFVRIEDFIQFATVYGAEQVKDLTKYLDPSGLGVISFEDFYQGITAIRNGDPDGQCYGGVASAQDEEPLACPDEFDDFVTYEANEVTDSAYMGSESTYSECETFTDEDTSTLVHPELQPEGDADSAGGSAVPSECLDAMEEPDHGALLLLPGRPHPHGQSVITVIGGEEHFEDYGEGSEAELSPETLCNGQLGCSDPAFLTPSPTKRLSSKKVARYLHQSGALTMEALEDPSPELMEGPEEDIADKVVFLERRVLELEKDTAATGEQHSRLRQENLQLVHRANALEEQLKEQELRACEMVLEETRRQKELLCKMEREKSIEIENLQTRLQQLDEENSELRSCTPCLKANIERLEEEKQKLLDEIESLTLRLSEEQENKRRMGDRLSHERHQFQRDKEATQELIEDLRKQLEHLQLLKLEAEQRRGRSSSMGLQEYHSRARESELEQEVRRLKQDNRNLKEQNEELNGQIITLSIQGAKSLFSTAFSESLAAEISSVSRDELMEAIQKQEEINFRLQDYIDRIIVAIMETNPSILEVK
B1: binds.
B2: binds.
B3: binds.
B4: binds.
